Legend:
Format in all cases: cell-based
[1] = system: gene editing with Cas9; assay: Screen of 322 new SSAP proteins, gene editing activity with Cas9 (Table 5); parameters: Cas9 with SSAP activity: scale not given here
Method in brief: (§1)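 Read-out is gene editing activity. Candidates come from sequence data mining, are made synthetically, and are tested alongside either nuclease-active Cas9 or catalytically dead dCas9.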

[2] = system: gene editing with dCas9; assay: Screen of 322 new SSAP proteins, gene editing activity with dCas9 (Table 5); parameters: dCas9 with SSAP activity: scale not given here
Method in brief: as §1

[3] = system: gene editing with Cas9 and dCas9; assay: Screen of 322 new SSAP proteins, activity across all experiments (Cas9 and dCas9, Table 5); parameters: scale not given here
Method in brief: as §1

| Molecule | Cas9 with SSAP activity [1] | Cas9 with SSAP activity (normalized) [1] | dCas9 with SSAP activity [2] | dCas9 with SSAP activity (normalized) [2] | Activity across all experiments [3] |
| --- | --- | --- | --- | --- | --- |
| SSAP_188: SEQ ID NO: 357; Propionibacterium freudenreichii (protein, listed as Propionibacterium freudenreichii) TQQMPIKAQGEPTKELQQKAAVDRFNATLHQMQNEIARALPKHMTGDRFVRIVLTEVRKNPTLALCDPLTMFGSLLTAAALGLEPGLNGECWLVPRKNHGTLEAQLQVGYRGVVKLFWQNPAATYLDTGYVCERDEFRFAKGLNPILEHTPAEGDRGKVVRYYAVAGLNTGARVFDVFTPAQIKTLRGGKVGSNGDIPDPEHWMERKTALLQVLKLMPKSTQLAAVPAADGRAHTISDAQQIFGGVDPTTGEVLDAEPVEDGAA | −6.279 | −0.994 | −5.957 | −0.867 | −6.118 |
| SSAP_243: SEQ ID NO: 412; Nocardia puris (protein, listed as Nocardia puris) AESISSEVARQASPLAVVARYRSELAGSLPAAVRHDVDRWLMVAEMAVRRSPDLMEIVRRDQGASLMRALIECARLGHEPGSPEFYLIPRGGIVSGEESYRGIIKRILNSGEYQRVVARVVHERDRFSFDPRIDEIPDHRPAEGERGAPARAYAFAVRWDGTPSTVGEATPERIIAAKAKARGVDRKDSPWNSPTGVMYRKTAIRELASYVHTSAEPRPRPAAPTEPPAVDEVSTVYDAEVIDEVDVLDITAEPTA | −1.310 | −0.511 | −5.989 | −1.036 | −3.650 |
| SSAP_112: SEQ ID NO: 281; Bacillus sp. UNC322MFChir4.1 (protein, listed as Bacillus sp.) ATNKDVKNQLANRKENKPATPEQKVEAYMTAMAPRFAEVLPKHMSMDRMSRIALTTIRTNPKLLECSVPSLMGAVMQAVQLGLEPGLLGHCYILPYKSEATFIIGYKGMIDLARRSGHIQSIYAHAVYENDEFDYELGLHPKLTHKPSFGERGEFIGAYAVAHFKDGGHQMEFMPKSEIEKRRSRSASGNSSYSPWKSDYEEMAKKTVVRYMFKYLPISIEVQSQAQHDEVVRKDITEEPEFIEMDSIEVAEASEGDGQKEFVIEE | −1.038 | −0.628 | −6.027 | −0.986 | −3.533 |
| SSAP_300: SEQ ID NO: 469; Lactobacillus sp. (protein, listed as Lactobacillus sp.) NSLSGALNSRNQAGSPTSMIKNLMRSDSIKNRFDEVMGAKAPQFMASITNLVNSNQDLQHVDAMSVVASAMVAATLDLPIDPNLGYMYIVPYRGQAQPQMGYKGYIQLALRTGQYKHINALPVYDDEVKSWNPLTEELEYESSGTSHDNQTPAGYVGYFQLINGFEKTTYWTYDQINSHRQKFSKMSSKTDPTGVWKSNFDAMALKTVLRNLISKWGIMSIEMQQAFVKDERPQEFDHETGEIQDVQEVEAEEENVAPETQGSTDKKEE | −4.466 | −0.701 | −5.916 | −1.175 | −5.191 |
| SSAP_167: SEQ ID NO: 336; Ruminococcus sp. (protein, listed as Ruminococcus sp.) GTSIQKNVENNALQKEKMPTMQAYIKKMEGEIKKALPSVMTPERFTRITLSALSTNPKLAATTPGSFLGAMMTAAQLGLEPNTPLGQAYLIPYSNKGKLECQFQIGYKGLIDLAYRSGSISVIQAHTVYENDDFEYELGLDPKLKHIPSKSADKGNPAWFYAVFKTKDGGYGFEVMSIEDIRSHAAKYSQSYNSAYSPWKTNFEEMAKKTVLKKALKYAPLKSDFVRQISTDETIKTKLSDDMFSVPAETIEVEGIEVDTETGEITEVDHA | −1.337 | −0.698 | −6.070 | −0.834 | −3.703 |
| SSAP_2: SEQ ID NO: 173 (protein) ATNESLKNQLTTKKETGLGSAGNTIKGLMNSPAIKKRFEEVLKQRAPQYMSSIVNLVNSDINLKKCDQMSVVASCMVAATLDLPVDKNLGYAWVVPYGNKAQFQLGYKGYVQLALRTGQYKSINVIEIHEGELIDWNPLTEELKIDFSKKESDAVIGYAGYFELLNGFKKSTYWTKEQITKHKNKFSKSDFGWKKDFDAMARKTVLRNMLSKWGILSIEMQNAYTADQGIIKNEIMETGEVKENIEYIEADFESYEDNSIEEGGANE | −7.779 | −1.250 | −6.114 | −1.204 | −6.946 |
| SSAP_52: SEQ ID NO: 221 (protein) TIMDLLNDPKMKSQIQRALPNGMSAERIARIALTALRMNPQLQECSPQSFAAALMTSAQLGLEPNTPLGHAWLIPRKNHGKMEVQFELGYKGMLDLVRRSGMITAIFAEEVREKDEFEFEYGTNPYLKHKPYLGGDRGKVLFYYAVATFKDGGYAFKVMSIPEIEEARKLSQSANSPYSPWNRFYDEMAKKTVLKRLCKYLPLSIEVQRNLAQDETIRTQIEADDILDLPNENEFEVVEVEEIPGEEEKEEAKEGPFPNKALRESPTPLT | −0.544 | −0.573 | 0.163 | 0.148 | −0.190 |
| SSAP_306: SEQ ID NO: 475; Paenibacillus gorillae (protein, listed as Paenibacillus gorillae) LEAKHDALPSGFNAVRFVQNCKAYLPEVRNFERFNPDEIALQFLKGAILGLDFLAKECHVITEGSAARFQTDYKGEMKLAMKHSVRPLLNIYAKNVREGDVFRESVVEGRPVVSFDPLPFNNSKIIGSFAVAQFNDGGMDYESMSSTEIESIRTHYGKNPGSDTWEKSQGEMYKRTALRRLCKTIEIDFDAEQRLAFDAGSSFEFNREPRPQQQSPLNLESEVLTDEVEQG | −2.932 | −2.350 | −5.884 | −0.905 | −4.408 |
| SSAP_304: SEQ ID NO: 473; Desulfobacteraceae bacterium (protein, listed as Desulfobacteraceae bacterium) ATPNTPTTTDAGDFLKKSEKSLKNYAVRKYDFTSFLKSAMIAINDNTTLSECLRTEAGKKSLFNAMRYAATTGLSLNPQEGKAALIGYKNKAGEMVLNYQIMKNGLIDLALSSGKVEFVTADLVRANDEFSIKKSASGDDYSFSPAIRDRGEVIGFVAALKLKGSATYVKWMSTEEVAEFRDKYSSMYKNRPDASPWTHSFNGMGIKTVMKALLRSVSISPDVDAAVKSDDYIEAEFTVHGTTADDAVTQLQTPSKPVKAEEGQGELL | −2.690 | −0.447 | −5.835 | −0.886 | −4.262 |
| SSAP_125: SEQ ID NO: 294; Lysinibacillus fusiformis (protein, listed as Lysinibacillus fusiformis) ATTNELKAKSQNQVQQNVTPEQSLNTLLKRMGPQIQRALPKHMDADRIARIALTAVRATPKLLECDQMSFVAALMQSAQLGVEPNTGLGQAYLIPYGKQVQFQLGYKGLIDLAVRSGQYKAIYAHEVYKEDEFSFAYGLHKDLVHVPSTNPEGEPIGYYAVYHLKNGGYDFVYWTRERIDKHAHEFSQAVKKGWTSPWKTNYDAMAKKTVLKEVLKYAPKSIELQKVVEADETIKTEVSEDMSDVIDVTDYSVIEDESAQEELIIEQ | −1.981 | −0.329 | −6.106 | −1.313 | −4.043 |
| SSAP_166: SEQ ID NO: 335; Blautia sp. OF03-15BH (protein, listed as Blautia sp.) NVKEELAQKAEITQKEVKLKKSMSISDMIRALQPEIKKALPSVVTPERFIRMALSALNTTPKLAECSQISVLAALMNAAQLGLEPNTPMGQAYLIPFNNKGKMECQFQIGYKGLLELVYRNPAIQIIQAQTVYENDYFEYELGLNSRLIHRPELEDRGEIRLFYGLFKMVNGGYGFEVMSRQEMDQYAARYSKSFASGFSPWENNYEDMAKKTMIKRVLKYAPVKIETARALINDESIKLHLSEDMSEVENETVVDGQAEEKAA | −1.338 | −0.432 | −5.849 | −0.934 | −3.593 |
| SSAP_228: SEQ ID NO: 397; Weissella koreensis (protein, listed as Weissella koreensis) ANELVKQLKSEKVAAQFETTAGKNAAAFASEVAISVMGNKALENASLSSVVVEATKASALGLSLLPTVGEAYLVPYKGQAQFQLGYKGLVQLAMRSGQMKSFGTVKVYEGEHPRWDKYSQELHTDGDETGEVVGYYAQFTLINGFKKADYWTKSAVEEHRSRFSKSKSGPWSTDFDAMAQKTVLKSILQYAPKSSEMTRAMASEDMNGDISEGTAKPIDITPETETPKVEEANQNQQIDTNEMVDEIKEYAKETNEAPKEQTVSAADEFFK | −4.425 | −0.688 | −5.964 | −1.008 | −5.195 |
| SSAP_294: SEQ ID NO: 463; Parageobacillus thermoglucosidasius (protein, listed as Parageobacillus thermoglucosidasius) AKQADLKNKLANKNSTNPTAYLKNLVYAPTVQQKFKEVLKEKAAHFLTSLISLVDSSPDLQKCNPMTIIASAMKAATLELPIDKNLGYAWIVPYKNVATFQIGYKGYIQLALRTGLYRSINVIEVYEGELRKWNRLTEELDIDEGARKSDHVIGYAGYFELTNGFIKRVYWSKEDIERHRKKFAKSDFGWENNYDAMAKKTVLRNMLSKWGILSIDMQRAYVNDIDDPEQTKEVIDVEWSEIIEEANVANSPEQQEIVFEQ | −7.102 | −2.102 | −5.929 | −1.096 | −6.515 |

From patent publication US20250034594A1, “RNA-GUIDED GENOME RECOMBINEERING AT KILOBASE SCALE” (THE BOARD OF TRUSTEES OF THE LELAND STANFORD JUNIOR …, priority 2021, published 2025)
